Test results: doi:10.1101/869909

Target: HSP27 ACD domain (α-crystallin domain), monomeric (human)
Assay: ITC

Sequence of HSP27 ACD domain (α-crystallin domain), monomeric (human) (P04792 76-184): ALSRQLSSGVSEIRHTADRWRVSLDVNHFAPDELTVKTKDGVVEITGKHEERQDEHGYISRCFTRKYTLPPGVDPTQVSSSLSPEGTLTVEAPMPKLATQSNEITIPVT

With EITIPVTHE [HSP27 IXI peptide 178-…-186 (F185H), without biotin] the Kd was 14.3 µM.
